Assay results taken from publication PMC12343034, “ArnR binds a [4Fe–4S] cluster and indirectly senses anaerobicity in Corynebacteria”.

How the values were obtained:
ArnR ([4Fe-4S] form) [1] = molecular target: T1, ArnR ([4Fe-4S] form) (Corynebacterium glutamicum ATCC 13032, UniProt Q8NR72 1-230); assay: native MS; [4Fe-4S], two clusters per dimer; complex at 71438 Da; [4Fe-4S]:[DNA] ~1; SPR: HBS+P (10 mM HEPES, 150 mM NaCl, surfactant P20) with 1 mM DTT, pH 7.4, 25 C, anaerobic; EMSA: 10 mM Tris, 54 mM KCl, 0.3% glycerol, pH 7.5, on ice; native MS: DNA in 100 mM ammonium acetate, pH 8; details: protein: recombinant; tags: C-terminal His; chain copies: 2; blunt
T1 sequence: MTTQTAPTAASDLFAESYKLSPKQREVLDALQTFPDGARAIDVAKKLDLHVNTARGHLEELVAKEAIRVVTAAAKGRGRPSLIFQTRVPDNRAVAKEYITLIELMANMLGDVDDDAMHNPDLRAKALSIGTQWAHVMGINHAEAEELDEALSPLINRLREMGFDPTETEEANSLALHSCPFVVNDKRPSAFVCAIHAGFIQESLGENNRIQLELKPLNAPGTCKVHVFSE

ArnR ([4Fe-4S] form) [2] = molecular target: T1, ArnR ([4Fe-4S] form); assay: EMSA; [4Fe-4S]; maximal binding at ~315 nM [4Fe-4S] (~32-fold over DNA); SPR: HBS+P (10 mM HEPES, 150 mM NaCl, surfactant P20) with 1 mM DTT, pH 7.4, 25 C, anaerobic; EMSA: 10 mM Tris, 54 mM KCl, 0.3% glycerol, pH 7.5, on ice; native MS: DNA in 100 mM ammonium acetate, pH 8; details: protein: recombinant; tags: C-terminal His; chain copies: 2; label: 5' 6-FAM on strand 1; blunt

B1: hmp promoter 30 bp (JC05_F/JC06_R) (dsDNA)
DNA 1: GGATTTAATCTAATTAAATAAATCCCAGGA
DNA 2: TCCTGGGATTTATTTAATTAGATTAAATCC
ArnR ([4Fe-4S] form) [1]
  binding result: binds

B2: hmp promoter 80 bp (JC01_F/JC02_R) (dsDNA)
DNA 1: CGCCTTTCCATGCTTCATGGGTTAATTTCTACGGATTTAATCTAATTAAATAAATCCCAGGATCCAAGCAATTTGGCCTT
DNA 2: AAGGCCAAATTGCTTGGATCCTGGGATTTATTTAATTAGATTAAATCCGTAGAAATTAACCCATGAAGCATGGAAAGGCG
ArnR ([4Fe-4S] form) [2]
  binding result: binds
